The values below come from US20240084259A1, “STEM CELL-DERIVED MATURE CARDIOMYOCYTES AND CARDIOVASCULAR DISEASE MODEL USING SAME” (KOREA UNIVERSITY RESEARCH AND BUSINESS FOUNDATION, priority 2019, published 2024).

Holding throughout (format): cell-based
Experiment [1] relates to human embryonic stem cells (BG01 cell line). Put plainly: Morphology and beating of cardiomyocytes differentiated from stem cells (optical microscope). Conditions: FGFs 10 ng/ml, ascorbic acid 200 μg/ml; for day of differentiation on which beating cardiomyocytes were observed: control group 9th day; for cell morphology: treatment from 5th to 15th day of differentiation, vs control group. How it is done: In order to increase the differentiation efficiency of stem cells into cardiomyocytes and to improve differentiation by cardiomyocyte type and mature differentiation, conditions for monolayer differentiation of human embryonic stem cells (BG01 cell line) into cardiomyocytes were established.
An E8 culture medium (STEMCELL Technologies) containing a 2 μM ROCK inhibitor (thiazovivin) was added to a 6-well culture plate coated with Matrigel, and embryonic stem cells dissociated into single cells using Accutase were seeded at 2.5×10^5 cells per well. Culture was carried out for about 3 days, and the E8 culture medium was exchanged until confluence of the 6-well culture plate with the cells. When confluence of the 6-well plate with the human embryonic stem cells was achieved, CHIR99021 (Sigma-Aldrich) as a GSK-3 inhibitor was added at a concentration of 6 μM to a CDM3 culture medium (containing RPMI 1640, serum albumin and ascorbic acid as three chemically verified components, P. W. Burridge et al., Nature Methods 11:855, 2014), followed by culture for 24 hours. Then, on the 2nd day of differentiation, 5 μM IWP2 (Inhibitor of Wnt Production 2) was added to the medium, followed by culture for 2 days. After addition of 10 ng/ml FGF2, 10 ng/ml FGF4, 10 ng/ml FGF10, 200 μg/ml ascorbic acid, and 10 ng/ml FGF4+200 μg/ml ascorbic acid on the 5th day of differentiation, culture was carried out until the 15th day of differentiation while the culture medium was exchanged every 48 hours with an RPMI+B27(-Insulin) medium (FIG. 1a).

For experiment [2], the system named is human embryonic stem cells (BG01). In words: Polymerase chain reaction for cell lineage markers during differentiation into cardiomyocytes. The conditions noted are these: 15th day, treated 5th to 15th day; FGFs 10 ng/ml, ascorbic acid 200 μg/ml; vs control group.
From the text: (§1) In order to investigate the effect of FGF2 on differentiation by cardiomyocyte type, mature differentiation of cardiomyocytes, and differentiation of vascular smooth muscle cells, the expression of a cardiomyocyte marker (cTnT), mature cardiomyocyte marker (cTnI), ventricular cardiomyocyte marker (MLC2v), atrial cardiomyocyte markers (MLC2a, ANP), nodal cardiomyocyte markers (HCN4, TBX18), vascular smooth muscle cell markers (SMA, SM22), and vascular endothelial cell marker (CD31) in the control group and the group treated with 10 ng/ml FGF2 for 10 days from the 5th day to the 15th day during the differentiation of human embryonic stem cells (BG01) into cardiomyocytes was determined through polymerase chain reaction using primers for each cell lineage marker.
as §1, with “of FGF10” for “of FGF2”, “of the” for “of a”, “ng/ml FGF10” for “ng/ml FGF2”
as §1, with “of ascorbic acid” for “of FGF2”, “of the” for “of a”, “with 200 μg/ml ascorbic acid” for “with 10 ng/ml FGF2”
as §1, with “of FGF4” for “of FGF2”, “of the” for “of a”, “ng/ml FGF4” for “ng/ml FGF2”

In experiment [3] the test system is human embryonic stem cells. Put plainly: FGF4 concentration series, polymerase chain reaction for MLC2v, MLC2a, TBX18, SMA. On the procedure:
In order to determine the appropriate concentration of FGF4 on the increase in gene expression of the ventricular cardiomyocyte marker (MLC2v), atrial cardiomyocyte marker (MLC2a), nodal cardiomyocyte marker (TBX18), and vascular smooth muscle cell marker (SMA) from human embryonic stem cells, after treatment with FGF4 at various concentrations for 10 days from the 5th day to the 15th day of differentiation, polymerase chain reaction was performed using primers for MLC2v, MLC2a, TBX18, and SMA.

Experiment [4] has as its system human embryonic stem cells (BG01). In words: Immunofluorescence staining of cardiomyocyte type markers. The conditions noted are these: 10 ng/ml FGF4 or 10 ng/ml FGF4+200 μg/ml ascorbic acid. On the procedure:
In order to investigate the effect of treatment with FGF4 alone and co-treatment with FGF4+ascorbic acid on type-specific differentiation and mature differentiation of human embryonic stem cells into cardiomyocytes, differences in expression of the cardiomyocyte marker (cTnT), ventricular cardiomyocyte marker (MLC2v), and atrial cardiomyocyte marker (MLC2a) after treatment with 10 ng/ml FGF4 or co-treatment with 10 ng/ml FGF4+200 μg/ml ascorbic acid for 10 days from the 5th day to the 15th day during the differentiation of human embryonic stem cells (BG01) into cardiomyocytes was confirmed through immunofluorescence staining (FIG. 7).

`O=C1O[C@H]([C@@H](O)CO)C(O)=C1O` [ascorbic acid, reference compound]: in experiment [1], the “day of differentiation on which beating cardiomyocytes were observed” value (“day of differentiation” below) came out at 9 days and the cell morphology result is listed as “relatively flat morphology”. For the same molecule, in experiment [2], the “expression of atrial cardiomyocyte marker ANP (mRNA)” value is given as “significantly increased”, the “expression of atrial cardiomyocyte marker MLC2a (mRNA)” value is recorded as “significantly increased”, the “expression of cardiomyocyte marker cTnT (mRNA)” value is “significantly increased” and the “expression of mature cardiomyocyte marker cTnI (mRNA)” value was “significantly increased”. Besides, in experiment [2], the “expression of nodal cardiomyocyte marker HCN4 (mRNA)” value is on record as “significantly decreased”, the “expression of nodal cardiomyocyte marker TBX18 (mRNA)” value is “significantly decreased”, the “expression of vascular smooth muscle cell marker SM22 (mRNA)” value was “significantly decreased” and the “expression of vascular smooth muscle cell marker SMA (mRNA)” value was “significantly decreased”. In experiment [2], the “expression of ventricular cardiomyocyte marker MLC2v (mRNA)” value is “significantly increased”.
As for “FGF2: FGF2, maturation factor compared at 10 ng/ml”, in experiment [1], the “day of differentiation” value is 9 days and the cell morphology entry was “morphological changes similar to the control group”. Also, in experiment [2], the “expression of atrial cardiomyocyte marker ANP (mRNA)” value is reported as “significantly increased”, the “expression of mature cardiomyocyte marker cTnI (mRNA)” value is recorded as “no effect”, the “expression of nodal cardiomyocyte marker HCN4 (mRNA)” value is reported as “significantly decreased” and the “expression of nodal cardiomyocyte marker TBX18 (mRNA)” value is recorded as “significantly decreased”. Besides, in experiment [2], the “expression of vascular endothelial cell marker CD31 (mRNA)” value was “significantly increased”, the “expression of vascular smooth muscle cell marker SM22 (mRNA)” value is reported as “significantly decreased”, the “expression of vascular smooth muscle cell marker SMA (mRNA)” value was “significantly decreased” and the “expression of ventricular cardiomyocyte marker MLC2v (mRNA)” value was “no effect”.

B1: FGF10: FGF10, maturation factor compared at 10 ng/ml (protein, UniProt O15520 38-208, looked up)
Fibroblast growth factor 10: QALGQDMVSPEATNSSSSSFSSPSSAGRHVRSYNHLQGDVRWRKLFSFTKYFLKIEKNGKVSGTKKENCPYSILEITSVEIGVVAVKAINSNYYLAMNKKGKLYGSKEFNNDCKLKERIEENGYNTYASFNWQHNGRQMYVALNGKGAPRRGQKTRRKNTSAHFLPMVVHS
For the molecule B1, in experiment [1], the “day of differentiation” value is 9 days and the cell morphology entry is on record as “morphological changes similar to the control group”. Also, in experiment [2], the “expression of atrial cardiomyocyte marker MLC2a (mRNA)” value is recorded as “significantly increased”, the “expression of mature cardiomyocyte marker cTnI (mRNA)” value is “no effect”, the “expression of nodal cardiomyocyte marker HCN4 (mRNA)” value was “significantly increased” and the “expression of nodal cardiomyocyte marker TBX18 (mRNA)” value was “significantly increased”. In addition, in experiment [2], the “expression of vascular smooth muscle cell marker SMA (mRNA)” value was “significantly increased” and the “expression of ventricular cardiomyocyte marker MLC2v (mRNA)” value is given as “no effect”.

B2: FGF4: fibroblast growth factor 4 (FGF4), maturation factor added to the differentiation medium (protein, UniProt P08620 31-206, looked up)
Fibroblast growth factor 4: APTAPNGTLEAELERRWESLVALSLARLPVAAQPKEAAVQSGAGDYLLGIKRLRRLYCNVGIGFHLQALPDGRIGGAHADTRDSLLELSPVERGVVSIFGVASRFFVAMSSKGKLYGSPFFTDECTFKEILLPNNYNAYESYKYPGMFIALSKNGKTKKGNRVSPTMKVTHFLPRL
As for B2, in experiment [1], the “day of differentiation” value is 9 days and the cell morphology result is “formed in a thickened structure”. In experiment [2], the “expression of atrial cardiomyocyte marker ANP (mRNA)” value is “significantly increased”, the “expression of atrial cardiomyocyte marker MLC2a (mRNA)” value was “significantly increased”, the “expression of mature cardiomyocyte marker cTnI (mRNA)” value is reported as “significantly increased” and the “expression of nodal cardiomyocyte marker HCN4 (mRNA)” value is on record as “significantly decreased”. In experiment [2], the “expression of nodal cardiomyocyte marker TBX18 (mRNA)” value is given as “significantly decreased”, the “expression of vascular smooth muscle cell marker SM22 (mRNA)” value is listed as “significantly decreased”, the “expression of vascular smooth muscle cell marker SMA (mRNA)” value is reported as “significantly decreased” and the “expression of ventricular cardiomyocyte marker MLC2v (mRNA)” value is given as “significantly increased”. In experiment [3] (5 ng/ml FGF4, 5th to 15th day), the “gene expression of atrial cardiomyocyte type marker MLC2a” value is on record as “started to increase”, the “gene expression of nodal cardiomyocyte marker TBX18” value is listed as “significantly decreased”, the “gene expression of vascular smooth muscle cell marker SMA” value is reported as “significantly decrease” and the “gene expression of ventricular cardiomyocyte type marker MLC2v” value is recorded as “started to increase”. Besides, in experiment [3] (10 ng/ml FGF4, 5th to 15th day), the “gene expression of atrial cardiomyocyte type marker MLC2a” value is listed as “highest”, the “gene expression of nodal cardiomyocyte marker TBX18” value is on record as “significantly decreased”, the “gene expression of vascular smooth muscle cell marker SMA” value is recorded as “significantly decrease” and the “gene expression of ventricular cardiomyocyte type marker MLC2v” value is “highest”. Besides, in experiment [3] (25 ng/ml FGF4, 5th to 15th day), the “gene expression of atrial cardiomyocyte type marker MLC2a” value is reported as “highest”, the “gene expression of nodal cardiomyocyte marker TBX18” value is “significantly decreased”, the “gene expression of vascular smooth muscle cell marker SMA” value was “significantly decrease” and the “gene expression of ventricular cardiomyocyte type marker MLC2v” value is on record as “highest”. In experiment [3] (50 ng/ml FGF4, 5th to 15th day), the “gene expression of atrial cardiomyocyte type marker MLC2a” value is “observed to increase” and the “gene expression of ventricular cardiomyocyte type marker MLC2v” value is given as “observed to increase”. Further, in experiment [3] (100 ng/ml FGF4, 5th to 15th day), the “gene expression of nodal cardiomyocyte marker TBX18” value is recorded as “significantly decreased”. Further, the “morphology of cardiomyocytes (immunostaining)” value in experiment [4] (5th to 15th day, compared to control group) was “agglomerated and thickened morphology”. For the same molecule, the “atrial cardiomyocyte marker MLC2a (immunostaining)” value in experiment [4] (control group also positive) is “positive reaction”. For the same molecule, in experiment [4] (in the thickened cells, 5th to 15th day), the “expression of ventricular cardiomyocyte marker MLC2v (immunostaining)” value is “increased”.
